# According to patent US20130171677A1 (BOARD OF SUPERVISORS OF THE UNIVERSITY OF LOUISIANA SYSTEM, published 2013):
# B1: Bilin lyase CpcS from Thermosynechococcus elongatus BP1 (TeCpcS), His-tagged (enzyme)
# chain: MCIGMDIRDFFAQSAGRWFSQRTSHHLAFKQTESGKSQLTIELLSVDDPAVIALCQQYDMDPAWAVCGARVSWDGTMEWDNEKHEGSTVLVPIMDQGSRMEGKLLREMGYAEKAPVAGRFSMGSDGALTLITEYETIYSEERLWFASPNLRLRTSILKRFGGFSMASFCSEIRLGVTQPANS
# notes: also called HT-TeCpcS; CpcS-III; not shown: C-terminal His-tag from the pET22c construct used for crystallization and size-exclusion chromatography
# Biological target: the molecule itself
# Test: size exclusion chromatography of purified recombinant TeCpcS (complex 53.0 kDa against ~24.0 kDa calculated for HT-TeCpcS)
# Method: In order to determine the molecular mass of TeCpcS in its native state, the purified, recombinant TeCpcS was subjected to size exclusion chromatography. The molecular mass of this complex was calculated to be 53.0 kDa, and the calculated molecular mass of HT-TeCpcS is ˜24.0 kDa.
protein,measurement,value
B1,binding result,binds
